Data as given in patent publication CN112679613A.

Assays:
[1] = biological target: 肝癌Huh-7细胞 (Huh-7癌细胞抗原; Huh-7细胞裂解蛋白); assay: SPR, BIAcore T-200, 1:1 Langmuir model; binding to liver cancer Huh-7 cells
[2] = biological target: 肝癌Huh-7细胞 (Huh-7癌细胞抗原; Huh-7细胞裂解蛋白); assay: indirect ELISA; plate coated with 2 μg/mL Huh-7 cell antigen; purified ascites antibody in 2-fold dilutions

Binder | Kd [1] [nM] | 抗体效价 [2]
3E2单克隆抗体 (antibody, V domains shown) VH: EVKLVESGGGLVKPGGSLKLSCAASGFTFSNSAMRWVRQIPEKRLEWVAVIRAGGSLYFPDRVKSRFTISRDNARNICYLQMNSLRSDDTAMYYCARGREADGGYFDYWGQGTTLTVSS VL: DIVLTQSPASLAVSLGQRATISCAASERREYYGTSLASWYQQKPGQPPKLLIYARSNVEYGVPARFSGSGSGTDFSLNIHPVEEDDIAMYFCGSSMKRPLRFGAGTKLELK | 0.56 | 2.56e+06
5D7单克隆抗体 (antibody, V domains shown) VH: EVKLVESGGGLVKPGGSLKLSCAASGFTFSDAAMRWVRQIPEKRLEWVASISSLISLYFPDSVESRFTISRDNARNICYLQMNSLRSDDTAMYYCARGAEASGGYFDQWGQGTTLTVSS VL: DIVLTQSPASLAVSLGQRATISCSASEHPEYYGTSLMAWYQQKPGQPPKLLIYASSNVETGVPARFSGSGSGTDFSLNIHPVEEDDIAMYFCQVSMKRPLDFGAGTKLELK | 0.45 | 5.12e+06
5A3单克隆抗体 (antibody, V domains shown) VH: EVKLVESGGGLVKPGGSLKLSCAASGFTFSRYAMSWVRQIPEKRLEWVAAISSGGSLYFPDSVKGRFTISRDNARNICYLQMNSLRSDDTAMYYCARGREADGGYFDYWGQGTTLTVSS VL: DIVLTQSPASLAVSLGQRATISCSASESCYYYGTSLAQWYQQKPGQPPKLLIYKLSNVRGGVPARFSGSGSGTDFSLNIHPVEEDDIAMYFCRQPMKVPLKFGAGTKLELK | 0.58 | 2.56e+06
6G5单克隆抗体 (antibody, part only; not given: Light chain variable region, V domains shown, part only) VH: EVKLVESGGGLVKPGGSLKLSCAASGFTFSAYAMTWVRQIPEKRLEWVAAISPTGSLYFPGSVSGRFTISRDNARNICYLQMNSLRSDDTAMYYCARGVEADSQYFDKWGQGTTLTVSS | 0.34 | 5.12e+06
6F4单克隆抗体 (antibody, V domains shown) VH: EVKLVESGGGLVKPGGSLKLSCAASGFTFSQYASLWVRQIPEKRLEWVAAISGQGSLYFPDSVCTRFTISRDNARNICYLQMNSLRSDDTAMYYCARGAAADGGYFDTWGQGTTLTVSS VL: DIVLTQSPASLAVSLGQRATISCSASESVEFSGTSLTRWYQQKPGQPPKLLIYASQNVEGGVPARFSGSGSGTDFSLNIHPVEEDDIAMYFCCYSMKVPPRFGAGTKLELK | 0.62 | 2.56e+06

Stronger by Kd [1], values ahead:

Kd [1] [nM] | 抗体效价 [2] | Binder
0.31 | 5.12e+06 | 4D6单克隆抗体 (antibody, V domains shown) VH: EVKLVESGGGLVKPGGSLKLSCAASGFTFSQYRMGWVRQIPEKRLEWVAEISSASSLYFPDSVKSRFTISRDNARNICYLQMNSLRSDDTAMYYCARAREADNVYFDAWGQGTTLTVSS VL: DIVLTQSPASLAVSLGQRATISCSQSESGTYYGTSLAMWYQQKPGQPPKLLIYAASNVESGVPARFSGSGSGTDFSLNIHPVEEDDIAMYFCTASMKAPLRFGAGTKLELK
0.29 | 5.12e+06 | 4D3单克隆抗体 (antibody, V domains shown) VH: EVKLVESGGGLVKPGGSLKLSCAASGFTFSASAQSWVRQIPEKRLEWVALQSRSGSLYFPASVKQRFTISRDNARNICYLQMNSLRSDDTAMYYCARSREASGGYIDEWGQGTTLTVSS VL: DIVLTQSPASLAVSLGQRATISCSASESGGYYGTSLMNWYQQKPGQPPKLLIYSTSNEEKGVPARFSGSGSGTDFSLNIHPVEEDDIAMYFCGQSMKRPLRFGAGTKLELK
0.23 | 5.12e+06 | 2D3单克隆抗体 (antibody, V domains shown) VH: EVKLVESGGGLVKPGGSLKLSCAASGFTFSSAAMRWVRQIPEKRLEWVARIEEGGSAYFPDSVLVRFTISRDNARNICYLQMNSLRSDDTAMYYCARSRESPAGYFKLWGQGTTLTVSS VL: DIVLTQSPASLAVSLGQRATISCCASESVHPYGTSLAMWYQQKPGQPPKLLIYASSRVEPGVPARFSGSGSGTDFSLNIHPVEEDDIAMYFCSSSGQVPARFGAGTKLELK
